From patent US20200353067A1

Biological target: CX3CR1 (fractalkine receptor) (human) (UniProt P49238)
Assay: cell-based or functional assay

Sequence of UniProt P49238 (P49238 whole entry): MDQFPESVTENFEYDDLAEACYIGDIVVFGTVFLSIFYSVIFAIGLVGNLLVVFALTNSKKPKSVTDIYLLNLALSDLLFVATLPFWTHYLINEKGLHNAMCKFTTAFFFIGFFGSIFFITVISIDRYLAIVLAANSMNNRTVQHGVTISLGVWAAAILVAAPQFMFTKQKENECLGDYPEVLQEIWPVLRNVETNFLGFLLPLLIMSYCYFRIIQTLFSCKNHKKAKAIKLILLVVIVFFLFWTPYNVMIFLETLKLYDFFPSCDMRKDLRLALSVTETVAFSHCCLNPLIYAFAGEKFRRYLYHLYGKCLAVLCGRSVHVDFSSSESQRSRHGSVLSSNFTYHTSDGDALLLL

For “RSV A2 strain G-protein (surface attachment glycoprotein) (from UniProt P03423 1-298) (ligand)”, the viral load was 2.3 fold.
